Test results reported in article PMC10798921, “Target-induced hot spot construction for sensitive and selective surface-enhanced Raman scattering detection of matrix metalloproteinase MMP-9”.

Assays:
Conditions in all cases: protein: recombinant; label: 13-nm gold nanosphere via DNA1 3' thiol; partial duplex: aptamer 5' part pairs with DNA1; aptamer 3' overhang; DNA1 3' AAA tail
[1] = biological target: MMP-2 (human, UniProt P08253 110-660); assay: SERS nanosensor (aptamer strand displacement); 100 ng/mL; AuNS-2 with DNA2/DTNB present; Assay buffer for MMP-9 in solution not in the material; duplex annealed in 8 mM phosphate, 0.8 mM MgCl2, 20 mM NaCl; cell supernatant assay at 37 C for 2 h
Sequence of MMP-2 (P08253 110-660): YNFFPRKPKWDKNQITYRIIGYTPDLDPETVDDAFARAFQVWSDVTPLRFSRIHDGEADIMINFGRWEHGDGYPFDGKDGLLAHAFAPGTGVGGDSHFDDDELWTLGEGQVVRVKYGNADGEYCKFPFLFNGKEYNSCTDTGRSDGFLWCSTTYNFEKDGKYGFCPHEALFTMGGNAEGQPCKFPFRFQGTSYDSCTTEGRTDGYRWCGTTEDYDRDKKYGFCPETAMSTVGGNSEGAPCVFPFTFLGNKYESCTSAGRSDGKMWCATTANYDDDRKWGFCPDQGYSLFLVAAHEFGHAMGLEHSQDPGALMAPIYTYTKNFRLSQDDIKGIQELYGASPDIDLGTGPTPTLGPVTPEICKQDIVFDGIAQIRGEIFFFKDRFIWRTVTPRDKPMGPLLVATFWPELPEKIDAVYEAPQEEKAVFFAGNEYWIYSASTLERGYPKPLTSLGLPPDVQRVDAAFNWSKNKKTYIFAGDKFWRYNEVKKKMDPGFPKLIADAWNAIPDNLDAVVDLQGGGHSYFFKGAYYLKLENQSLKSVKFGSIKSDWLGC

[2] = biological target: MMP-3 (human, UniProt P08254 100-477); assay: as above
Sequence of MMP-3 (P08254 100-477): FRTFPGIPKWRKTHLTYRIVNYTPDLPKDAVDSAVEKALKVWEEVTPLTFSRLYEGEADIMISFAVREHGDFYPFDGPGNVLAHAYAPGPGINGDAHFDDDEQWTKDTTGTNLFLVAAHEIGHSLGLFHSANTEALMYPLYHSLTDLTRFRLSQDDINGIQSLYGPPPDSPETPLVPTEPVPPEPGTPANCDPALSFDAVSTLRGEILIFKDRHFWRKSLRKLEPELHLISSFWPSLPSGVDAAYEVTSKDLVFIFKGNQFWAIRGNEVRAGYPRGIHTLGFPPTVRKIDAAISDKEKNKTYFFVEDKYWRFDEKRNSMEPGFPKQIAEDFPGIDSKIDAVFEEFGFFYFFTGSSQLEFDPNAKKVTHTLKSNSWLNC

[3] = biological target: T1, MMP-7 (human, UniProt P09237 95-267); assay: as above
T1 sequence: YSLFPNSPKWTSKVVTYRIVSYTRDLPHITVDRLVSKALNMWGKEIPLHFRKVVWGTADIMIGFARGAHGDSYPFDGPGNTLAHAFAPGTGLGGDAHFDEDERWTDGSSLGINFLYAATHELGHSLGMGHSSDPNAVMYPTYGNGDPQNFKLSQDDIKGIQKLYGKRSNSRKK

[4] = biological target: MMP-9 (human, UniProt P14780 107-707); assay: SERS nanosensor (aptamer strand displacement, AuNS aggregation; UV-vis, DLS, TEM); MMP-9 10 ng/mL (selectivity), 350 ng/mL (UV-vis, DLS, TEM); AuNS-2 with DNA2/DTNB present; Assay buffer for MMP-9 in solution not in the material; duplex annealed in 8 mM phosphate, 0.8 mM MgCl2, 20 mM NaCl; cell supernatant assay at 37 C for 2 h
Sequence of MMP-9 (P14780 107-707): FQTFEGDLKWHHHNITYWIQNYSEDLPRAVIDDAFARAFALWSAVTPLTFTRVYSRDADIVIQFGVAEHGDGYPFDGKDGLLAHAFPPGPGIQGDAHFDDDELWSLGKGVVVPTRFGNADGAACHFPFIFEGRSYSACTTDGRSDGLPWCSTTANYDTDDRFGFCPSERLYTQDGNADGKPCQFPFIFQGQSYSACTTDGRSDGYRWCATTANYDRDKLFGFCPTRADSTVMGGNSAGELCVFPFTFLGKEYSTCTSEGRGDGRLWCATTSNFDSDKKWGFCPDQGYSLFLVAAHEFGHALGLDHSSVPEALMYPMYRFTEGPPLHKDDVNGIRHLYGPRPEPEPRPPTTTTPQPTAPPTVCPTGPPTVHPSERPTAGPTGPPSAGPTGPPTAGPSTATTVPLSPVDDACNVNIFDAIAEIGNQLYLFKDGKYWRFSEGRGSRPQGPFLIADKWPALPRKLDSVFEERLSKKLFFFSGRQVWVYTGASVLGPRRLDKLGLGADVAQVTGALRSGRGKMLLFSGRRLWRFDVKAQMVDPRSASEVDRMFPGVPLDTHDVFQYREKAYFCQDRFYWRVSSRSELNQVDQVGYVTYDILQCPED

B1: MMP-9 aptamer (annealed to DNA1 on AuNS-1) (mixed)
DNA 1: TCGTATGGCACGGGGTTGGTGTTGGGTTGG
DNA 2: GGTGTGCCATACGAAA
modifications: DNA1 3' ThioMC3-D
binding result [1]: no binding
binding result [2]: no binding
binding result [3]: no binding
binding result [4]: binds
